This assay has as its target catalytic subunit α of PKA (PKA-Cα) (human (endogenous in HCT116 and HCT-15), UniProt P17612 1-351). Kind of assay: co-IP; immunoprecipitation with anti-PKA Cα (4782, Cell Signaling) and protein-G Sepharose from 2 mg HCT116 lysate, 2 h at 4 °C, IP lysis buffer (50 mM tris/HCl pH 7.4, 150 mM NaCl, 0,25% NP-40); cells mitotically arrested (2 µM dimethylenastron, 16 h) or asynchronous with DMSO, E2, BPA, DES or G-1 for 48 h; Western blot, Centrin-pS170 band normalised to precipitated PKA Cα. Conditions: partners not purified. On the technique in general: In western blotting, separated proteins are transferred to a membrane and probed.

B1: Centrin-2 phosphorylated at serine 170 (Centrin-2-pS170) (natural protein, human (endogenous in HCT116 and HCT-15), UniProt P41208 1-172, looked up)
chain: MASNFKKANMASSSQRKRMSPKPELTEEQKQEIREAFDLFDADGTGTIDVKELKVAMRALGFEPKKEEIKKMISEIDKEGTGKMNFGDFLTVMTQKMSEKDTKEEILKAFKLFDDDETGKISFKNLKRVAKELGENLTDEELQEMIDEADRDGDGEVSEQEFLRIMKKTSLY
modifications: phosphoserine at 170
notes: Centrin-2, human, endogenous, the form phosphorylated at S170 as detected by the anti-Centrin-2-pS170 antibody (raised against Cys-LRIMKKT(pS)LY172); NM_004344.3 is printed for the Centrin wild-type expression vector, not for the endogenous protein of the co-IP; also called Centrin-pS170; phosphorylated Centrin-2; source: endogenous, HCT116 and HCT-15 lysates
Take B1: the “fold increase of co-precipitated Centrin-pS170 (normalised to PKA-Cα) with BPA, relative to DMSO” value is 1.8 fold; the “fold increase of co-precipitated Centrin-pS170 (normalised to PKA-Cα) with DES, relative to DMSO” value was 1.6 fold; the “fold increase of co-precipitated Centrin-pS170 (normalised to PKA-Cα) with E2, relative to DMSO” value was found to be 1.4 fold.

These data come from article PMC12673129, “A GPER-PKA-Centrin axis regulates centrosome numbers and centriole integrity in colon cancer cells” (Communications Biology, 2025).
